{"source": "the DeepSol protein solubility set", "data": [{"assay": "soluble on expression in E. coli; label from the status in PepcDB or PDB records", "values": [{"sequence": "MDSEAVSSDSHVAAAIATRRRSNSVSDDYSVQRTNDDATQCKYFATQKGYWKDEFISRFANSSSNVSEARRFPEISMGYWARTAAIEKYVRDFLNEFDGNAQVVSLGCGFDTLFWRLVSSGAKLVKYVEVDFSSVTSKKIRHILKPIGPNSVDLKKSFESDAVVSHHADLHAGNYHLIGADLRQANELDQKLATCQLSHDIPTIFIAECVLVYMSADSSTALLKQIVSQFKQPAFVNYEQFRTSDAFTKVMEQNLGDRGIQLHGLEMCESAEKQEERFRNAGFKEVKVMDMNQIFNNFLDQKEVSRIREIEMLDEMELLQQLFAHYCVVSARI", "soluble on expression in E. coli": "not soluble"}, {"sequence": "MDSGLKALEAVLAIARKGSFRAAALDLGVSTTALSHTVARLEAGLGVRLFHRTTRSVALTEAGREFVARIAPALTEIRAALETVRSQRATPSGMLRINASVQAGRAVAPLVLAFLRRYPEMRVDLVTEGRLLDIVAEGFDMGIRPADLVPRDMIALPLGLPVRHAVVASPDWLVRHPEPRSPADLDPDACLRVRLPNGALLRWPFQKDGVPLPFEASGRLTVDEAAIARAAVLDGAGIGYFIEADVAEDIAAGRMIRLLEDWTPNRPGFSLYYSGRRNPSAGFTAFLAMAREREAA", "soluble on expression in E. coli": "not soluble"}, {"sequence": "MDSHVGEVDIFQQCKYIHEVELVNMKLQMRILETHIETKDRLLRNLEDIIDEQESRIANMEDFIQGRATSYTNRSNMLKGISVLSLDFGNLSEENLRLKNALSQMQKVARVNELLETDEDYESDMTSNEDRFALSRDSSCSVPRSVSPQPTGDVIKPYPQMVQSMREEGHWKKLQRCAEELKTEKDELKRLALDTKDAFNVCMAEMRMMLTSKTTDFFRVLIERYKAEMEKRKQLHNQLVELNGNIRVFYRIRPQLASETDNQKPVVVIDEMDNGVVHVSNTTGTRKTSAGADKVIPTDFSQDQIFNEVSPIITSCIDGYNVCIFAYGHTGSGKTYTMDGPVTMPGINQRAIMQLFETAKERTGDIKYDIKVAMMEIYNEKIRDLLNTSNTNLAIRQTEEGRSSIPGLEEVSVNSAEEVTETLARGRKNKAVAATEANIESSRSHVIVRVLVSATNLITKATTVGRLNLVDLAGSERVSQTNATGQLLKEAQAINKSLSELGNVVLALRQNQKHIPFRNCQLTRILEDSLNGDSKTLVIVHLSPDAKSLNESISSVNFAEKIGQVFTKSGTMKREPTRRSMTGISSGQRREIPASPRK", "soluble on expression in E. coli": "soluble"}, {"sequence": "MDSLKCQVDNTVASHNVTIDKSSQDDNHIDNRRYYINIGNTKDSEEVARLQKLILTQNEAESKRTMELLALLNLKNNPEEQKKASAVGPAVDVAQNLRHLSASAGGTRRLRSCHGTYLRAYDKGLKVDMKTGAPGTWENWWVEDRKGKVVFKAIHSPGIFLSAQGNNQLTLDYHVNASEFWTPKKNDNGSWSFQSANGTWLSAHKDGRACLQPHRQAWEEFWLEWW", "soluble on expression in E. coli": "not soluble"}, {"sequence": "MDTVNDSFSPGSSRPSPATLSREDCWSEEATFTLIQAWGNRYVDLSRGNLRQKHWQEVANAVNDRHYNTGRNVSAAKSQPYRTDVQCKNRIDTLKKKYKVEKARVSESNPGAYISPWPFFSALDDLLRESFPTSSNPDSTDNIPHQRLSLPMSINPVPVAPRSAIPRRPATSPAIIPHAGDDLLGFRGNLNAFAAAAAAAACPASEDDSEGSRSRSSGRSGSNKKRERKIEKKQGYKEVADAIERLGQIYERVEEKKRKEMVELEKQRMRFAKELECHRMQLFTEMQVRLHKLRRTSGSKGPTSSASAGET", "soluble on expression in E. coli": "soluble"}, {"sequence": "MDVQDIIGIALNLATAGSLAAKVLPGCGGKKKGKSVEGESTSSSKGNGAKTPEGKEGSEARTPSAAGSAAPTAPAEGAAPAAGAPAAVAPKPPMAATHDPNYQTLAGLDNNVFGKKDGAAPAAGGGGPAAPADQNAKAATHDPNYQTLAGLNNNVFDKKDGVGAPAAAPVAAGGDKKPIQPNDKNKKAATMDPNYQTLAAVGGDVFGADKKAGGGGGDKKPIQPNNKGQKAATMDPNYQTLAAVGGDVFGADKKKK", "soluble on expression in E. coli": "soluble"}, {"sequence": "MDVQLPYNVKIEAFEGPLDLLLHLINRYEIDIYDIPVAQITEQYMAYIHAMQELELDIASEYLVMAATLLAIKSKMLLPPSNEEAVDGDIEWGDDGDPREELTQRLLEYKKFKEAARELKRREEERALLFTKPPSDLSAYADEKKAAPLDVNVYDMLGALSKLLRRKKLQKPMRAKISRQDISVEQRMAEILHELKQANGRKNFYELFPSYDRSYIVVTFLAILELMKQDEIIVEQERNFSDLFLAVKPAG", "soluble on expression in E. coli": "not soluble"}, {"sequence": "MDVTRQIELAHRYMKDFHKSDYSGHDVAHVERVTSLAQTISKCEQQGEYLIITLSALLHDVIDDKLTNKANALDRLKTFLKNIRVSSDQQQKIIYIIQHLSYRNGQNNHVDLPIEGQIVRDADRLDAIGAIGIARAFQFSGHFNEPMWTESPHSDIPNIETITNLEPSAIRHFYDKLLKLKDLMHTETGRKLARERHAFMEQFLNQFYKEWHILEHHHHHH", "soluble on expression in E. coli": "soluble"}, {"sequence": "MDWRWWKIAYEELTEKQQRFVDKYITTFNATESAKQAGYSEKSAYSQGQRLLKNVEIQKAMKERFLEAKDTKGDRIQDVAETLEQDTSIARGEIQISEFKETDMLTGQVVIHTKREYTPSHEEQGRARDRIYKVNGAYSEKRELEHSGTVVFANEDNIPD", "soluble on expression in E. coli": "not soluble"}, {"sequence": "MDYRVLLYYKYVTIDDPETFAAEHLKFCKEHHLKGRILVSTEGINGTLSGTKEDTDKYIEHMHADNRFADLTFKIDEAESHAFKKMHVRPRREIVALDLEEDINPREITGKYYSPKEFKAALEDENTVILDARNDYEYDLGHFRGAIRPDITRFRDLPEWVRNNKEQLDGKNIVTYCTGGIRCEKFSGWLVKEGFENVGQLHGGIATYGKDPETKGQYWDGKMYVFDERISVDVNQIDKTVIGKEHFDGTPCERYINCANPECNKQILVSEENEEKYLGACSYDCAKHERNRYVARHHISNEEWQRRLNNFKDVPEHTHALEHHHHHH", "soluble on expression in E. coli": "soluble"}, {"sequence": "MDYSEIMVRHGELSTKGKNRMRFINKLKNNIQDVLAPFPAITVRSDRDRTHVSLNGTDYQPIVEALKLVFGVQALSPVYKLEKSVPLLVTAVQDIMTSLYRDGLTFKIATKRSDHAFELDSRELNSLLGGAVFEVLPNIQAQMKHPDVTLKVEIRDEAAYISYEEIKGAGGLPVGTSGKGMLMLSGGIDSPVAGYLALKRGLDIEVVHFASPPYTSPGALAKAQDLTRRLTRFGGNIQFIEVPFTEIQEEIKNKAPEAYLMTLTRRFMMRITDAIREQRKGLVIVNGESLGQVASQTLESMQAINAVTSTPIIRPVVTMDKLEIIEMAQAIDTFDISIQPFEDCCTIFAPDRPKTNPKLGNAEKYEECFDIDGLVQRAVSGIVVTEITPEIVNDEVENLIDALL", "soluble on expression in E. coli": "not soluble"}, {"sequence": "MDYTEESAQIPEMAEKLGIPTSRKETKTLELPVSIDFRNWCSPIEDQMDLGSCTAHAGVGVVEYFERRAFGKHIDGSRFFVYKTTRNLMGVKGDTGAWLRNTMGALALCGVPPEKYFPYTSRKTPGPDGEPTFDDEPSSFVYSLADNFEALNYFCHDPQGMNLPPEDVILSVKKYLAAGIPSMFGFYGFPSFKDTDVKGGIPFPGPDERSIWGHAVVAVGYDDNMKIRNTLSNKETTGAFLIRNSWGTAWGDKGYGWLPYEYALNKFALDFWSLISMKWVETGNFGLELESSRSRARETLSRDMPLPHALEHHHHHH", "soluble on expression in E. coli": "not soluble"}, {"sequence": "MDYVDYSNPDNPVITDEGERLAKIHSEADLLVAQCLKRGIWDNLDPAELAGVVSMCTFENRRETGGEAQAVTEAMADSMNSVERIWGELVEDERRHRLPITRQPEAGFATAIHQWASGAPLGYCMAAAAENGAELTPGDFVRWCRQVIDLLEQVAKTAYFDETTRNARQAIDAIRRGVVAIGSLEHHHHHH", "soluble on expression in E. coli": "soluble"}, {"sequence": "MEAKAIARYVRISPRKVRLVVDLIRGKSLEEARNILRYTNKRGAYFVAKVLESAAANAVNNHDMLEDRLYVKAAYVDEGPALKRVLPRARGRADIIKKRTSHITVILGEKHGK", "soluble on expression in E. coli": "soluble"}, {"sequence": "MEANMPKRKEPGRSLRIKVISMGNAEVGKSCIIKRYCEKRFVSKYLATIGIDYGVTKVHVRDREIKVNIFDMAGHPFFYEVRNEFYKDTQGVILVYDVGQKDSFDALDAWLAEMKQELGPHGNMENIIFVVCANKIDCTKHRCVDESEGRLWAESKGFLYFETSAQTGEGINEMFQTFYISIVDLCENGGKRPTTNSSASFTKEQADAIRRIRNSKDSWDMLGVKPGASRDEVNKAYRKLAVLLHPDKCVAPGSEDAFKAVVNARTALLKNIK", "soluble on expression in E. coli": "soluble"}, {"sequence": "MECLKAEFFSPIALFKTPFSIKGIETYPLPPYSTVIGLLYTASGKKWKGERFNISVQGDYEAIFRDYVRFRKYNKKDKKLETLPLEVPLFYNFRLTVHILGDENLLKEFEKALKFPYVFPYLSGGEYPVKITKVKMVACRKEYFDTFNIPKNAYIPENIFTEEFRVSLEGHGVYYRVPSFLISQKPRQHEWVGVYYVQKGTKVSEMELLVDEEGEPVWV", "soluble on expression in E. coli": "soluble"}, {"sequence": "MEEKKTESATKNVKKVNLLDHIAIKHLLDESVSDIVTSRGYKEDGSFTSTGLVVSSKLPRFSDQYTLTIDSADPQSISAGKSVQFTKSVTQWLTKDGVLVEGLFWKDVEALVKEYTEAGEPKKKR", "soluble on expression in E. coli": "not soluble"}, {"sequence": "MEEKVYLDKLAKRDIKPTAIRLLILKSMMEAGRAVSQLDLETLLDTVDKSTISRTITLFLSHHLIHSIDDGSGSWKYAVCDDSCNCVLKDLHSHFYCEKCHRTFCLEKIHIPVIDLPKGFTLHSVNYVVKGVCAECSKV", "soluble on expression in E. coli": "not soluble"}, {"sequence": "MEEKWCNYLLNEGRDWKTMNKTILKTCIISAVLGGVLLTEKNGEVKAEEITPQTNHTGVFKDVPKGHWAYEAIQQLTDEKIVFGYDDGRFGFGDNVTREQVAALLYRYFNLAEEKNYENPYGDVSEESTSYIKEILSLTEMGVFKGDEHGNFRPKASLTRAEMAQVLTNAFHLKAKSNHTFNDVSTNSWASNAISAVQTNNIAKGVGGGNFAPNMDVTREQYAQFLYNAIQETEKTQETKGQLLASILGETNWQGTKVYDKDHNDVTKENQNFIGLAKYDAKTARYEFFNASTGESRNDSGTFFITNDGKKRVLISETQNYQAVVELTQLDKEKFTYKRMGKDAKRNDVEVFVEHIPYQEKELSFTRPDKNLESSTGKIVTDVDGDKILSSTLWNGTVVLDEQGNNVTKYNSNLISLAKYDKNTNKYEFFNVNTGESRGDYGFFDVVHDNKIRAHVSLGNNKYGAVLELTELNKEKFTYTRMGKDANGKDIKIFVEHEPNTGDLKPNFTK", "soluble on expression in E. coli": "not soluble"}, {"sequence": "MEELQDDYEDMMEENLEQEEYEDPDIPESQMEEPAAHDTEATATDYHTTSHPGTHKVYVELQELVMDEKNQELRWMEAARWVQLEENLGENGAWGRPHLSHLTFWSLLELRRVFTKGTVLLDLQETSLAGVANQLLDRFIFEDQIRPQDREELLRALLLKHSHAGELEALGGVKPAVLTRSGDPSQPLLPQHSSLETQLFCEQGDGGTEGHSPSGILEKIPPDSEATLVLVGRADFLEQPVLGFVRLQEAAELEAVELPVPIRFLFVLLGPEAPHIDYTQLGRAAATLMSERVFRIDAYMAQSRGELLHSLEGFLDCSLVLPPTDAPSEQALLSLVPVQRELLRRRYQSSPAKPDSSFYKGLDLNGGPDDPLQQTGQLF", "soluble on expression in E. coli": "soluble"}, {"sequence": "MEENKQRVKSMINILQLVAPGTPLREGIDNVLRAQTGGLIVLGYNEQIKSIVDGGFHINCAFSPASLYELAKMDGALILNETGSKILIANAQLVPDSSIDSIETGMRHRTAERVAKQTGSLVVAISQRRNVITLYQGNLRYTLKDIGVILTKANQAIQTLEKYKAVWNDGITNLGILEFEEVVTMSEVVHVLHSVEMVLRIKNEILSYIHELGTEGRLIRLQLTELLADLEAEAALLIKDYHQEKTQDHHQILKKLQDLANTQLLEDSDLVKLLGYPGQTSLEESVTPRGYRITSKISRVPPLIIENLINRFKTLQGVCRATINELDDVEGIGEVRAKKIREGLKRIQEHLYMSRHN", "soluble on expression in E. coli": "not soluble"}]}]}
